In this assay the target is CD47 on Raji B cells (human) (UniProt Q08722). As to the kind of experiment: cell-based or functional assay.

B1: anti human CD47 (mouse antibody), clone B6H12 (antibody, from another filing, IgG1, V domains shown)
VH: EVQLVESGGDLVKPGGSLKLSCAASGFTFSGYGMSWVRQTPDKRLEWVATITSGGTYTYYPDSVKGRFTISRDNAKNTLYLQIDSLKSEDTAIYFCARSLAGNAMDYWGQGTSVTVSS
VL: DIVMTQSPATLSVTPGDRVSLSCRASQTISDYLHWYQQKSHESPRLLIKFASQSISGIPSRFSGSGSGSDFTLSINSVEPEDVGVYYCQNGHGFPRTFGGGTKLEIK
B1 showed a whole cell eating of Raji B cells by CAR-P^FcRγ macrophages, antibody at 20 µg/ml of 2.5 fold.
